{"source": "patent US20040023235A1", "about": "(WISTAR INSTITUTE OF ANATOMY AND BIOLOGY, published 2004)", "molecular_target": "T1, endogenous 53Bp1 (human p53-binding protein) from U2OS nuclear extracts (human, UniProt Q12888 1-1972)", "T1 construct": "Endogenous protein in nuclear extracts", "assay": "co-immunoprecipitation from U2OS nuclear extracts, western blot", "experimental": "Nuclear extracts from mock treated U20S cells or cells exposed to 1 or 8 Gy gamma irradiation were prepared as described by Waterman et al, 1998 Nature Genet., 19:175-178. Endogenous 53BP1, Mre11, or p95/NBS were immunoprecipitated by binding 1 μg/reaction of monoclonal anti-53BP1, or 1 μg/reaction purified Mre11 or p95/NBS antisera (Calbiochem) in 1× IP buffer [25 mM Hepes (pH 7.4)/100 mM NaCl/5 mM MgCl₂/100 mM EDTA/0.2 mg/ml BSA/0.1% Tween-20] to protein-G sepharose beads (Amersham) for 1 hour. After washing three times with 1× IP buffer, 100 μg nuclear extract was added and proteins allowed to bind for 1 hour at 4° C. The beads were washed and the proteins resolved on 6% SDS-PAGE, transferred to PVDF membrane and were visualized by western blot using the antibodies described in Part A above.", "data": [{"binder": "Mre11 (other, UniProt P49959 2-708, looked up, Member of the Mre11/Rad50/NBS complex) STADALDDENTFKILVATDIHLGFMEKDAVRGNDTFVTLDEILRLAQENEVDFILLGGDLFHENKPSRKTLHTCLELLRKYCMGDRPVQFEILSDQSVNFGFSKFPWVNYQDGNLNISIPVFSIHGNHDDPTGADALCALDILSCAGFVNHFGRSMSVEKIDISPVLLQKGSTKIALYGLGSIPDERLYRMFVNKKVTMLRPKEDENSWFNLFVIHQNRSKHGSTNFIPEQFLDDFIDLVIWGHEHECKIAPTKNEQQLFYISQPGSSVVTSLSPGEAVKKHVGLLRIKGRKMNMHKIPLHTVRQFFMEDIVLANHPDIFNPDNPKVTQAIQSFCLEKIEEMLENAERERLGNSHQPEKPLVRLRVDYSGGFEPFSVLRFSQKFVDRVANPKDIIHFFRHREQKEKTGEEINFGKLITKPSEGTTLRVEDLVKQYFQTAEKNVQLSLLTERGMGEAVQEFVDKEEKDAIEELVKYQLEKTQRFLKERHIDALEDKIDEEVRRFRETRQKNTNEEDDEVREAMTRARALRSQSEESASAFSADDLMSIDLAEQMANDSDDSISAATNKGRGRGRGRRGGRGQNSASRGGSQRGRADTGLETSTRSRNSKTAVSASRNMSIIDAFKSTRQQPSRNVTTKNYSEVIEVDESDVEEDIFPTTSKTDQRWSSTSSSKIMSQSQVSKGVDFESSEDDDDDPFMNTSSLRRNRR", "values": [{"measurement": "binding result", "value": "no binding"}]}, {"binder": "Rad50 (other, UniProt Q92878 1-1312, looked up, Member of the Mre11/Rad50/NBS complex) MSRIEKMSILGVRSFGIEDKDKQIITFFSPLTILVGPNGAGKTTIIECLKYICTGDFPPGTKGNTFVHDPKVAQETDVRAQIRLQFRDVNGELIAVQRSMVCTQKSKKTEFKTLEGVITRTKHGEKVSLSSKCAEIDREMISSLGVSKAVLNNVIFCHQEDSNWPLSEGKALKQKFDEIFSATRYIKALETLRQVRQTQGQKVKEYQMELKYLKQYKEKACEIRDQITSKEAQLTSSKEIVKSYENELDPLKNRLKEIEHNLSKIMKLDNEIKALDSRKKQMEKDNSELEEKMEKVFQGTDEQLNDLYHNHQRTVREKERKLVDCHRELEKLNKESRLLNQEKSELLVEQGRLQLQADRHQEHIRARDSLIQSLATQLELDGFERGPFSERQIKNFHKLVRERQEGEAKTANQLMNDFAEKETLKQKQIDEIRDKKTGLGRIIELKSEILSKKQNELKNVKYELQQLEGSSDRILELDQELIKAERELSKAEKNSNVETLKMEVISLQNEKADLDRTLRKLDQEMEQLNHHTTTRTQMEMLTKDKADKDEQIRKIKSRHSDELTSLLGYFPNKKQLEDWLHSKSKEINQTRDRLAKLNKELASSEQNKNHINNELKRKEEQLSSYEDKLFDVCGSQDFESDLDRLKEEIEKSSKQRAMLAGATAVYSQFITQLTDENQSCCPVCQRVFQTEAELQEVISDLQSKLRLAPDKLKSTESELKKKEKRRDEMLGLVPMRQSIIDLKEKEIPELRNKLQNVNRDIQRLKNDIEEQETLLGTIMPEEESAKVCLTDVTIMERFQMELKDVERKIAQQAAKLQGIDLDRTVQQVNQEKQEKQHKLDTVSSKIELNRKLIQDQQEQIQHLKSTTNELKSEKLQISTNLQRRQQLEEQTVELSTEVQSLYREIKDAKEQVSPLETTLEKFQQEKEELINKKNTSNKIAQDKLNDIKEKVKNIHGYMKDIENYIQDGKDDYKKQKETELNKVIAQLSECEKHKEKINEDMRLMRQDIDTQKIQERWLQDNLTLRKRNEELKEVEEERKQHLKEMGQMQVLQMKSEHQKLEENIDNIKRNHNLALGRQKGYEEEIIHFKKELREPQFRDAEEKYREMMIVMRTTELVNKDLDIYYKTLDQAIMKFHSMKMEEINKIIRDLWRSTYRGQDIEYIEIRSDADENVSASDKRRNYNYRVVMLKGDTALDMRGRCSAGQKVLASLIIRLALAETFCLNCGIIALDEPTTNLDRENIESLAHALVEIIKSRSQQRNFQLLVITHDEDFVELLGRSEYVEKFYRIKKNIDQCSEIVKCSVSSLGFNVH", "values": [{"measurement": "binding result", "value": "no binding"}]}]}
